Like-named read-outs stand apart in the source and are kept apart here.
Tests used:
[1] = biological target: KS-PPT di-domain construct of the S. cerevisiae FAS α-chain (S. cerevisiae); assay: SEC
[2] = biological target: KS-PPT di-domain construct of the S. cerevisiae FAS α-chain (S. cerevisiae); assay: SEC; remark: listed apart in the source

## KS-PPT di-domain construct of the S. cerevisiae FAS α-chain (domain or fragment)
[1]
  stoichiometry N: 2
[2]
  stoichiometry N: 2.5

— article doi:10.1101/336578
